Data as given in the DeepSol protein solubility set.

Assay: soluble on expression in E. coli; label from the status in PepcDB or PDB records

Sequence	soluble on expression in E. coli
LGRLFGTDGVRGVANLELTAELAYKLGQAGAYVLTSETKHTPKILVGMDTRISGDMLEASLVAGLCSVGAEVACLGIAPTPTVAYLTRYYNADAGVVISASHNPYEFNGIKFFNSKGYKLSDALEERIESIILDNSEKIQLPTGEKIGRKIEIESPLDDYVNFIKSTIKGDLKGLKVAIDCANGASYQVAPVTFFELGADVCVINNEPDGVNINKDCGSTHIEQLQKFVIESGADVGLAFDGDADRVLAVDENGNMVDGDQIMAIIGLELKKQGKLTNNTIVATVMSNLGLDIMAKREGINIVKTKVGDRYVLENMLENGHVLGGEQSGHIIFLEHSTTGDGILTGAQLLNVVKSSGKKLSELASIMQVLPQVLMNARVSNQNKEKYLEDEVICEMCKELENEFRDEGRVLIRPSGTEPLVRVMIEGKDRDYIEKRALELVKVIEERLG	soluble
MQQIFFKDPILGEVLFDQQTKWMYELVETEAFRRLRNIKQLGINFHFYPGGVHT	not soluble
MGGDSVAIFTADMSVSGELRNDIELHLRRGIESDALRLVYLPEVDLRTGDIVGTEALVRWQHPTRGLLAPGCFIPVAESINLAGELDRWVLRRACNEFSEWQSAGLGHDALLRINVSAGQLVTGGFVDFVADTIGQHGLDASSVCLEITENVVVQDLHTARATLARLKEVGVHIAIDDFGTGYSAISLLQTLPIDTLKIDKTFVRQLGTNTSDLVIVRGIMTLAEGFQLDVVAEGVETEAAARILLDQRCYRAQGFLFSRPVPGEAMRHMLSARRLPPTCILEHHHHHH	not soluble
EVQLQQSGAELVRPGTSVKLSCKASGYSFTNYWMNWLRQRPGQGLDWIGMIHPSDSETRLNQKFKDKATLTVDRSSSTAYIQLSSPTSEDSAVYYCARDDYDGAFWGQGTLVTVSAAKTTPPSVYPLAPGSAAQTNSMVTLGCLVKGYFPAPVTVTWNSGSLSSGVHTFPAVLQSDLYTLSSSVTVPSSTWPSETVTCNVAHPASSTKVDKKIVPRDC	soluble
MAHKQSTNNETSNGSTTEIIDETDARAQLESGRTTPTLLLRLEHPRNERRVAFHAGIIDNEHLNRKKSKCCCIYKKPLAFGESSSEDDEDCEHCFGHPEKRQRNAKHNHNHGDKPCTEASHPEGPSTSTQAAHISQPPAEPVESKTDPKPPTPGVDFEQTGSSMGHHHHHHSH	soluble
MGSDKIHHHHHHMLSRTADNLYWMTRYVERAENMARILDVSYRMSQLPRNGTDAAVEWEPALIISGQKPDFETRFEEITAGNVIAYMALDPENPSSIVSTLHAARENARAERFVLPQEMFEGLNATWLELQSLSYARLVDWGFREFFEWVKERSHQFLGTTIGTMLQTDGFHFTRLGTFIERADNTARLLDVKYHVLMPDENRLDEAVDYYQWGAVLRAMSALKAYRMVYRDTIKPRQVIDLLTLKREFPRSLHLCYENLHDLLEHLAPGAECTRLTGEMHAKLRYGRIQDITRRGLHRFLTDFITHNAAVSAEIGRTFHLVADIGVQTPVKEAKEAKRADDGGEAEEAGSVQQQRQ	not soluble
MGSDKIHHHHHHMIFDGYEAYRAANFKPKVCILGSGPAGTTIARKLGAAGIPVVVLEAGSREFSDESQDFYRGTKVGDFYFDLDITRLRYMGGSSNHWAGWCRVLDKLDFEPKAWAPDTGWPIRRADIEPYLTEVRDILELPDFRPDVPISDDIRWVQLIKSPAVRFAEKFADELDKSGNIAVVLNTYATELAGDGKRVTGAKLWSNGQDAGAFSADYFIVCTGGLENSRLLLWSNQRSNGGVVPNATALGRYWMEHPTFEGGNAILADYGEFEVDAVNEAFFSPTLAAMERLRIMNFGIRLIETPYAGVKHVIADLACTAPDMAEWVAYQLSQNLRCAAQLYVAWEQAPLASNQIELSKTDVDHAGVPRIELHWKKSELERRTLVEGLKLFGTTLIEKDLGRVRLMDWIANGEDYPTDEETAGHHHMGGTRMGIDMTRSVVDANCKVHGMDNLYVGGSSVFCTSGQANPTTTITALACRLGEHLSKVVAV	not soluble
MGSDKIHHHHHHMAVGKNNNKMGKKGGKKKAVDPFSRKEWYDIKAPNMFNTRQVGKTLINRTQGTKIASEGLKGRVFEVSLGDLNNSEADFRKFKLIAEDVQGKNVLTNFHAMSMTHDKLCSIVKKWHTLIEANTAVKTTDGYTLRVFVIAFTKKSVNQVKKTSYTKTSKIRKIRSEMIGCIEKEVTGCDLKEVVSKLIPDSIGKDIEKTCSKLYPLQEVYIRKVKIIKRPKVDLGRLHDLHGDSITVGADGEKVDRPDDYEPPVQQEV	not soluble
MLLGMSLEELTTVALRMGMPRFAGKQLAEWIYVRRATDFAEMTNISQANRQKLAEIYDLGRYPWSDVQCSVDGTKKYLFPVGEGRFVESVLIPEGDRATLCISSQVGCKMDCLFCMTGKQGWNGNLSAAEILNQIFSVDEAAELTNLVYMGMGEPLDNTDEVLRSIEALTEPWGMGWSPKRITVSTIGAKGLERFLAESRCHLAVSLHSPFPEERRKLMPGEKAFPIMQTLDRIRAYDFSGQRRVSFEYIVFDGLNDDMRHADELAAILRGIPCRINLIRFHKIPAVSLRSSDTARMEAFRKRMESHGFTCTIRASRGEDIFAACGMLSTSKAESSEEKSS	not soluble
SGRKRFITDSYPVVKKREGPPGHNKGELAPELGEDTQSLSQEETELELLRQFDLAWQYGPCTGITRLQRWHRAEQMGLKPPVEVYQVLKTHPEDSRFQCSLWHLYPL	soluble
AHHHHHHGSLEKLLEQAGIKLDFDGEEEKKSEIVDEFSGYKINIAVVGVGGSGNNTISRLYDLGVQGADLIAMNTDAQHLAITKAHKKVLLGKHITQGKGSGGDPKVGYLAAEASAQEIAAAVDGYDLVFITAGMGNGTGTGAAPVVARIVKETARNNGRFQEPLVVSVVTFPFKTEGTVRIEKAKWGIQRLLEYSDTVIIIQNDKLLELVPKLPLQSAFRFADELIARMVKGIVETIKLNSIVNIDFADVYSIMKGGGPALIGIGESDSNNRAVDAVNNALTNKMLDVEFGSGEKALVHFTIGPDVSLEEINKAMEVVYEKLSEKSEIKWGAMVDPEMGKTVRAMVIMTGVRSPYILGNVNALTDSSSWVVPKDRRLIGDPRIEKMFPDFNGSRAGRKRPSVGDAILKELGFKEL	soluble
FRGFRYNAGVYFDRSRNKLTEFGAEEIGSYSIKREGLPYDEYYMLECIGVFADQAEINASPKQFNDNTQPGDLKYKDISGPDGKPDGVIDNYDRRTFSGRFPGFEYGINASATWKGFDLSLIGQGVADKKYYTTDWGVQPFMQGSSPNKDYIKHMWTEENPYGAKHPKLYWQDMGGGKNTRPNSYYLKDASFFRLKNLTLGYTLPRVWTEKANISKVRIYFSGDNLLTLTPYKGLDPERNGDGRDAIYPQNRIYSFGLNVEF	not soluble
MQKESQTYKIAPAERLASVSEYYFSKKLKEVAQMNAEGKDVISLGIGSPDMPPSKVTIETLCNNAHDPNGHGYQPYVGIPELRKGFAAWYQRWYGVELNPNTEIQPLIGSKEGILHVTLAFVNPGEQVLVPNPGYPTYTSLSKILGAEVISYDLKEEDGWMPDFEALEKMDLNRVKLMWTNYPNMPTGANATPELYERLVDFARRKNIVIVNDNPYSFILNEKPISILSVPGAKECCIEFNSMSKSHNMPGWRIGMLASNAEFVQWILKVKSNIDSGMFRAMQLAAATALEAEADWYEGNNHNYRGRRHLAGEIMKTLGCTYDENQVGMFLWGKIPASCKDVEELTEKVLHQARVFITPGFIFGSNGARFIRISLCCKDAKLAEALERIKKLS	not soluble
MKALALIAHDAKKDEMVAFCLRHKDVLARYPLLATGTTGARIQEATGLAVERVLSGPLGGDLQIGARVAEGKVLAVVFLQDPLTAKPHEPDVQALMRVCNVHGVPLATNLVAAEALIAWIRKGTPQ	soluble
NDDIIVNWVNRTLSEAGKSTSIQSFKDKTISSSLAVVDLIDAIQPGCINYDLVKSGNLTEDDKHNNAKYAVSMARRIGARVYALPEDLVEVKPKMVMTVFACLMGRGMKRV	soluble
SPAPAATYERVVYKNPSEYHYMKVCLEFQDCGVGLNAAQFKQLLISAVKDLFGEVDAALPLDILTYEEKTLSAILRICSSGLVKLWSSLTLLGSYKGKKCAFRVIQVSPFLLALSGNSRELVLD	soluble
MANLPSSSGMFSRLLANVFNTTVASRCSASGRWWPQPDRRFTTKSDEKSSLEPKNTNETDVIITQQGVKLSKSNAAPVYYKPKSTGPGYELVEHKKGEMIANYTLFEAAINKSKVPWVNYDGLTSEERTIHMAHTRAINDRKLTYIDPKTGYSVFTISHHLQKGKCCGNGCRHCAYEMINASDEIRSQKVWNGAFYV	not soluble
MNETIAFRPEGRASIKDVVVNYTLASLDELEQLHPALNLLAHPSIVRGSHDFFVRCYDAGVQHAQAGAAETVAVLPDSLPQERQRSGLLCAAAGRLDALRQPLTHNRLCDLASQFCAGMADVDSETRSGFYTVRSISLPVYRRLLRDQHSHGVCLQQALLHLLAWKSDSPWARQQAQRLLWQGGVLGDKGEFALMTLDDELRERQIGWPGLWSLLAVTGFLAKFPAGPIFAD	not soluble
MSTFIRGPICGTDNCPSRLWRIIDGRRTCQYGHVMEGDVEFNDDEDDLNGLGAGVITRRLNLTTNATGSFQSSQLTNSQLLQQQQRQSHKKFKKLIGHEAKLLFLKSFQFILKRQIRWLITEMRFPKEFEHVAKIIWLKILKTINDQPQEELKLQLHMTSTISILYLASTHLSLPVYTCDYIKWICTAKMPYFQASEILPKSWRIQLPNYYVSILEGSISPFNGQLYNKIALTCGMIHFKEFFNSEISCQGLLLKLVMQCALPPEFYFYTKQVIEFEETDIRNLTLWERTDERHTGRVSNHAELRVLSYFMLTINWMLSFDRDRQYPLKWILSLTESLTQRTTTSESIGRNIVKVVYPDKPTSSDYFQWSEEETLEFLKWMEKQFLPTQTKSLHNENGSMEMTIDQKIARRKLYKIFPLDREANHDGEFNDSTHQLTFIEDLQERYAKQTPFFESNKIRDSLNYQEANPPARKEAIGRLLTHIASQLLVDFAISKEQLKDCISRIKNACLHRMN	not soluble
GSHMSKSDVFHLGLTKNDLQGATLAIVPGDPDRVEKIAALMDKPVKLASHREFTTWRAELDGKPVIVCSTGIGGPSTSIAVEELAQLGIRTFLRIGTTGAIQPHINVGDVLVTTASVRLDGASLHFAPLEFPAVADFECTTALVEAAKSIGATTHVGVTASSDTFYPGQERYDTYSGRVVRHFKGSMEEWQAMGVMNYEMESATLLTMCASQGLRAGMVAGVIVNRTQQEIPNAETMKQTESHAVKIVVEAARRLL	soluble
MGSDKIHHHHHHMEENYRRYPIGIQNFEQLRNRNCVYVDKTELVYRLANTDSVYFLSRPRRFGKSLLVSTLEAYFQGKKDLFKGLAMERLEKDWNVYPVFHIDFSLTKYTTLFDLQEQLNLFLLRCEKVYGAEKEEKTPAARLQGMIRRAYEQTGLPVVVLIDEYDAPLLDSNSNIPLQQELRNELRKFFSPLKGLGQYLRFLFITGISKFSQMSIFSELNNLKNISMRDDFSAICGITERELLDELRPDIERMALANGETYEAACAHLKRQYDGYHFSKHCEDIYNPFSLFNAFDAKEYKNFWFSTGTPTFLIDLLQETDFDVRQLEGVEATDEQFDAPTERVTSPIPVLYQSGYLTIKGYDPEFQVYRLAYPNGEVRKGFIESLLPAYLELPGQSSTFYVVSFIRDLRKGDIESCLERTRSFFASIPNDLENKTEKHYQTIFYLLFRLMGMYVDSEVKSAVGRADVVIKMQDAIYVLEFKYDGTAREALAQINSRLYAVPYRKDGRRIVKVGINFDSATRTIGDWVIEVEDTVDNL	not soluble
MNSPPINEFIQAVVYDHSIATGLKACKTDQDIVDYAASKGFIFSSSEWQLYLALDRKTLSDSELAKILVVPVEHWSWAFRKVALWRAMLMDGV	not soluble
